Measurements reported in the nanobody polyreactivity screen of Harvey et al. (2022).

test: yeast display, Sf9 membrane polyspecificity reagent, FACS + sequencing; frameworks hold sequencing errors
Method in brief: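 In a synthetic yeast display library (Saccharomyces cerevisiae BJ5465), nanobody expression was induced with galactose for 36–48 hours. FACS gates were set low and high (top ~1%) using anti-HA fluorescence for expression and streptavidin fluorescence for binding of the Sf9 membrane reagent. Each polyreactivity label is drawn from the gate of origin.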

Sequence	polyreactivity (PSR sort gate)
QVQLVESGGGLVQAGCSLRLICAASGIIFVGYAMGWYRQAPGKDRELVAGINSGGSTNYADSVKGRFTISRDNAKNTVYLQMNSLKPEDTAVYYCAAYPYYYYGYDYWGQGTQVTVSS	low polyreactivity
QVQLVESGGGLVQAGCSLRLSCAASGFIFGRYTMGWYRQAPGKERELVAAISGSDVSTYYADSVKGRFTISRDNAKNTVYLQMNSLKPEDTAVYYCNAGPWWYLHEYDYWGQGTQVTVSS	low polyreactivity
QVQLVESGGGLVQAGCSLRLSCAASGFIFVRNAMGWYRQAPGKERELVAAISSSGGSTNYADSVKGRFTISRDNAKNTVYLQMNSLKPEDTAVYYCNAQRYYDYWGQGTQVTVSS	high polyreactivity
QVQLVESGGGLVQAGCSLRLSCAASGFTFDDYAMGWYRQAPGKERELVAAISWSGGSTYYADSVKGRFTISRDNAKNTVYLQMNSLKPEDTAVYYCAALRTGAQYSTMDYWGQGTQVTVSS	low polyreactivity
QVQLVESGGGLVQAGCSLRLSCAASGFTFTTYAMGWYRQSPGKERELVAAISRSTGSTYYADSVKGRFTISRDNAKNTVYLKMNSMKPEDTAVYYCNTVFPNGYLSKYYYWGQGTKVTVSS	high polyreactivity
QVQLVESGGGLVQAGCSLRLSCAASGITFVGYAMGWYRQAPGKERELVAAISSSGGSTYYADSVKGRFTISRDNAKNTVYLQMNSLKPEDTAVYYCAKRRWWQKSLYDYWGQGTQVTVSS	high polyreactivity
QVQLVESGGGLVQAGCSLRLSCAASGLIFAVYTMGWYRQAPGKERELVAAITRRSTRTYYADSVKGRFTNSRDNAKNTVYLQMNSLKPEDTAVYYCAADRGSSGAAFEYWGQGTQVTVSS	low polyreactivity
QVQLVESGGGLVQAGCSLRLSCAASGLIFSKNVMGWYRQAPGKERELVAAISQRGGSTYYADSVKGRFTISRDNAKNTVYLQMNSLKPEDTAVYYCAADNSVSHEDYWGQGTQVTVSS	high polyreactivity
QVQLVESGGGLVQAGCSLRLSCAASGLTLRHYAMGWYRQSPGKERELVAAISWNTGSTYYADSVKGRFTISRDNAKNTVYLQMNSLKPEDTAVYYCAAVPRAYYQGLYYWGQCTQVTVSS	high polyreactivity
QVQLVESGGGLVQAGCSLRLSCAASGNTFGYYAMGWYRQAPGKERELVAAITSSGGRTYYADSVKGRFTISRDNAKNTVYLQMNSLKPEDTAVYYCAAGRVGARYPTYRFYYWGQGTLVTVSS	high polyreactivity
QVQLVESGGGLVQAGCSLRLSCAASGRIFNWYGMGWYRQAPGKERELVAGITYSASRTYYADSVKGRFTISRDNAKNTVYLQMNSLKPEDTAVYYCAAGRYHRDDGYDYWGQGTQVTVSS	low polyreactivity
QVQLVESGGGLVQAGCSLRLSCAASGRIFRRYAMGWYRQAPGKERELVAAITSGGGSTYYADSVKGRFTISRDNAKNTVYLQMNSLKPEDTAVYYCNKSSWEFVKGKYGYWGQGTQVTVSS	low polyreactivity
QVQLVESGGGLVQAGCSLRLSCAASGRIFWDNAMGWYRQAPGKERELVAAIDYRGGNTNYADSVKGRFTISRDNAKNTVYLQMNSLKPEDTAVYYCNAEWAVRYPGYDYWGQGTQVTVSS	low polyreactivity
QVQLVESGGGLVQAGCSLRLSCAASGRTFARYAMGWSRQAPGKVRELVAGISRSGDSTHYADSVKGRFTISRDNAKNTVYLQMNSRKPEDTSVYYCHKETPTIGARKYEYWGQGTQVTVSS	low polyreactivity
QVQLVESGGGLVQAGCSLRLSCAASGRTFDDYAMGWYRQAPGKERELVAAISSRCGSTYYADSVKGRFTISRDNAKNSVYLQMNSLKPEDTAVYYCNTLQSSHGSSQYDSWGQGTQVTVSS	low polyreactivity
QVQLVESGGGLVQAGCSLRLSCAASGRTFRYYAMGWYRQAPGKERELVAAISWRGGSTYYADSVKGRFTISRDNAKNTVYLQMNSLKPEDTAVYYCAAGILFGHYDYWGQGTQVTVSS	high polyreactivity
QVQLVESGGGLVQAGCSLRLSCAASGRTFSKYTMGWYRQAPGKERELVAAISGSGGSTYYADSVKGRFTISRDNAKNTVYLQMNSLKPEDTAVYYCAAEDEYNWYDDYFYTFDYWGQGTQVTVSS	low polyreactivity
QVQLVESGGGLVQAGCSLRLSCAASGSIFDDYAMGWNRQAPGKERELVAAISSSGTSTYYADSVKGRFTISRDNAKNTVYLQMNSLKPEVTAVYYCAARSAILKSGYLMDYWGQGTHVTVSS	low polyreactivity
QVQLVESGGGLVQAGCSLRLSCAASGSIFGYNAMGWYRQAPGKERELVAAITGSGGSTYYADSVKGRFTISRDNAKNTVYLQMNSLKPEDTAVYYCADDLFGGPLGYWDYDYWGQGTQVTVSS	low polyreactivity
QVQLVESGGGLVQAGCSLRLSCAASGSIFRYYAMGWYRQAPGKERELVAAITSSGGSTYYADSVKGRFTISRDNSKNTVYLQMNSLKPEDTAVYYCNARHVRYSRRENDYWGQGTQVTVSS	high polyreactivity
QVQLVESGGGLVQAGCSLRLSCAASGSTFFFNAMGWYRQAPGKERELVAAITGRCGSTYYADSVKGRFTISRDNAKNTVYLQMNSLIPEDTAVYYCAAEGVPYWSSRFWRYDYWGQGTQVTVSS	low polyreactivity
QVQLVESGGGLVQAGCSLRLSCAASGSTFGYYTMGWYRQAPGKERELVAAITRSGGSTYYADSVKGRFTISRDNAKNSVYLQMTSLKPEDTAVYYCAADDYWTTFGYWGLGTQVTVSS	low polyreactivity

Sequence	polyreactivity (PSR sort gate)
QVQLVESGGGLVQAGCSLRLSCAASGSTFTTNAMGWYRQAPGKEREFVAAITSSGGSTYYADSVKGRFTISRDNAKNTVYLQMNSLKPEDNAVYYCNADGDPSQKLFGRSYDYWGQGTQVNVSS	low polyreactivity
QVQLVESGGGLVQAGCSLRLSCAASGSTFTYYAMGWYRQAPGKERESVAAISSNGGSTSYADSVKGRFTISRDNAKNTVYLQMNSLKPEDTAVYYCAARSKRLAHDYWGQGTQVTVSS	high polyreactivity
QVQLVESGGGLVQAGCSLRLSCAASGSTFYRYAMGWYRQAPGKERELVAAITSGTGTYYADSVKGRFTISRDNAKNTVYLQMNSLKPEDTAVYYCNARRYLRGYWGQGTQVTVSS	low polyreactivity
QVQLVESGGGLVQAGCSLRLSCAASGSTLSFNAMGWYRQAPGKERELVAGITYSGGSTYYADSVKGRFTISRDNAKNTVYLLMNSLKPEDTAFYYCNKACGVYYGHLDYWGQGTQVTVSS	low polyreactivity
QVQLVESGGGLVQAGCSLRLSCAASGYNLFAYAMGWYRQSPGKERELVATINTSGGITYYADSVNGRFTISRDIANNTVYLQMNSLKPEDTAVYYCAAADGGGLVTYYYWGQGTQVTVSS	low polyreactivity
QVQLVESGGGLVQAGCSLRLSCAATGSFFGFYSMGWYRQAPGKEMELVASITISGGSTYYADSVKGRFTISRDNAKNNVYLQMNSLKLEDTAVYFCAAETYAYLFHTYDYWGQGTHVTVSS	low polyreactivity
QVQLVESGGGLVQAGCSLRLSCASSGRIFYGNAMGWYRQAPGKERELVAAISKSGASTYYADSVKGRFTISRDNAKNTVYLQMNSLKPEDTAVYYCAAETPRRKYNYWGQGSQVTVSS	high polyreactivity
QVQLVESGGGLVQAGCSLRLSSAASGFTFGYYGMGWYRQAPGKERELVAAISQSSTDTYYADSVKGRFTISRDNAKNTVYLQMNSLKPEDTPVYYCAAHPTDSEYDDYEYWGQGTQVTVSS	low polyreactivity
QVQLVESGGGLVQAGCSLRLSWAASGNIFKGYAMGWSRQAPGKERELVAAISKSGGSTYYADSVKGRFTISRDNAKNTVYLQMNSLKPEDTAVYYCNTYTYAGYNFWGQGTQVTVSS	high polyreactivity
QVQLVESGGGLVQAGDSLRLSCGASGRTFYPYAMGWYRQAPGKERELVAAITWSGGSTYYADSVKGRFTISRDNAKNTVYLQMNSLKPEDTAVYFCNAAELTYDLYDYCGQGTQVTVSS	low polyreactivity
QVQLVESGGGLVQAGGCLRLSCAASGRIFTTNPMGWYRPAPGKERELVARITYSGTSTYYADSVKGRFTISRDNAMNTVYLQMNSLKPEDTAVYYCAAKVWWRKYQLLDYYYWGQGTQVTVSS	high polyreactivity
QVQLVESGGGLVQAGGCLRLSCAASGRILYYYAMGWYRQAPGKERELVAAINSSGGSTYYADSVKGRFTISRDNAKNTVYLQMNSLKPEDTAVFYCAALRGNVLWYPPSYFRYDYWGQGTQVTVSS	high polyreactivity
QVQLVESGGGLVQAGGCLRLSCAASGRTFPRYAMGWYIQAPGKVRELVAVISFSGDSTSYADSVKGRFTISRDTAKNTVYIQMNSRKPEDTAVYYCIADYKSTVFRYSGSRNYWGQGTQVTVSS	low polyreactivity
QVQLVESGGGLVQAGGCLRLSCAASGSIFCVYVMGWYRQEPVKERELVAAITRGASTNYADSVKGRFTISRDNAKNTVYLQMNSLKPEDTAVYYCAARQVSVSGHQYGYWGQGTQVTVSS	low polyreactivity
QVQLVESGGGLVQAGGCLRLSCAASGSIFDYYTMGWYREAPGNEREFVAGISDSGGSTTYADSVKGRFTISRDNAKNTVYLQMNSLKPEDTAVYYCNAEYVGWFYKYDYWGQGTQVTVSS	high polyreactivity
QVQLVESGGGLVQAGGCLRLSCAASGSTFYGYAMGWYRQAPGKERELVAAISRIGSSTYYADSVKGRFTISRDNAKITVYLQMNSLKPEDTAVYYCAADTWKVFGVDYWGQGTQVSVSS	high polyreactivity
QVQLVESGGGLVQAGGCLRLSGAASVYTYRKYAMGWSRQAPGNERELVAAISASGGSTYYADSVKGRFTISRDKAKNTVYLPMNSLKPEDTAVYYCAKVPVTVYSRPFDYWGQGTQVTVSS	high polyreactivity
QVQLVESGGGLVQAGGGLRLSCAASGTFKRNAMGWYRQAPGKERELVATITRTGSTTYADSVKGRFTISRDNAKNTVYLQMNSLKPEDTAVYYCAAGYPPEDPEDYWGQGTQVTVSS	low polyreactivity
QVQLVESGGGLVQAGGILLLSCAASGRTFRVNTMGWYRQAPGTESELVAAISYSGASTYYADSVKGRFTISRDNAKNTVYLQMNSLKPEDTAVYYCAAAVGVALNDYWGQGTQVTVSS	high polyreactivity
QVQLVESGGGLVQAGGILRISCAASGFIFWKNAMGWYRQAPGKERELVAAISRGGSTYYADSVKGRFTISRDNAKKTVYLQMNSLKPEDTAFYYCNKVGGATDKYLYYYWGQATQVTVSS	high polyreactivity
QVQLVESGGGLVQAGGILRLICAASGLTFYRYAMGWYRQAPGKERELVAAINSRGSTYADSVKGRFTISRDNAKNTVYFQMNSLKPEDSAVYYCAARGRYRLYGYWGQVTQVTVSS	high polyreactivity
